Assay results published in the supplement of paper PMC9112550, “Optimization of the antimicrobial peptide Bac7 by deep mutational scanning” (BMC Biology, 2022).

System: Escherichia coli TOP10
Assay: shrunken log2 fold change of peptide-encoding DNA abundance (4.5 h post-induction vs induction); higher = less antimicrobial activity (less host growth inhibition)
Conditions: time post-induction: 4.5 h; library: site-saturation at positions 5, 18, 19, 20
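Note: peptides expressed intracellularly from a pBAD plasmid library in pooled LB shake-flask culture, induced with 0.3% L-arabinose, DNA abundance read by NGS, three biological replicates, DESeq2 with apeglm shrinkage.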

| Sequence | shrunken log2 fold change |
| --- | --- |
| RRIRFRPPRLPRPRPRPQEIPRP | -0.0426 |
| RRIRFRPPRLPRPRPRPQFFPRP | -0.193 |
| RRIRFRPPRLPRPRPRPQGNPRP | 0.311 |
| RRIRFRPPRLPRPRPRPQHCPRP | -0.461 |
| RRIRFRPPRLPRPRPRPQIKPRP | -0.291 |
| RRIRFRPPRLPRPRPRPQIWPRP | -0.0457 |
| RRIRFRPPRLPRPRPRPQKAPRP | 0.0467 |
| RRIRFRPPRLPRPRPRPQLVPRP | -0.117 |
| RRIRFRPPRLPRPRPRPQMNPRP | -0.709 |
| RRIRFRPPRLPRPRPRPQNPPRP | -0.231 |
| RRIRFRPPRLPRPRPRPQNRPRP | -0.536 |
| RRIRFRPPRLPRPRPRPQNTPRP | -0.512 |
| RRIRFRPPRLPRPRPRPQPGPRP | 0.152 |
| RRIRFRPPRLPRPRPRPQPNPRP | -0.0249 |
| RRIRFRPPRLPRPRPRPQQEPRP | -0.0424 |
| RRIRFRPPRLPRPRPRPQQQPRP | 0.0282 |
| RRIRFRPPRLPRPRPRPQSCPRP | -0.0102 |
| RRIRFRPPRLPRPRPRPQTPPRP | 0.626 |
| RRIRFRPPRLPRPRPRPQTYPRP | -0.69 |
| RRIRFRPPRLPRPRPRPQVEPRP | -0.0419 |
| RRIRFRPPRLPRPRPRPQYVPRP | -0.368 |
| RRIRFRPPRLPRPRPRPRACPRP | 0.165 |
| RRIRFRPPRLPRPRPRPRAKPRP | 0.189 |
| RRIRFRPPRLPRPRPRPRCAPRP | 0.178 |
| RRIRFRPPRLPRPRPRPRCDPRP | 0.0576 |

| Sequence | shrunken log2 fold change |
| --- | --- |
| RRIRFRPPRLPRPRPRPRCGPRP | 0.114 |
| RRIRFRPPRLPRPRPRPRDYPRP | -0.2 |
| RRIRFRPPRLPRPRPRPRHCPRP | -0.239 |
| RRIRFRPPRLPRPRPRPRIYPRP | -0.326 |
| RRIRFRPPRLPRPRPRPRKLPRP | 0.134 |
| RRIRFRPPRLPRPRPRPRKVPRP | 0.352 |
| RRIRFRPPRLPRPRPRPRLTPRP | -0.212 |
| RRIRFRPPRLPRPRPRPRMQPRP | 0.206 |
| RRIRFRPPRLPRPRPRPRMRPRP | 0.608 |
| RRIRFRPPRLPRPRPRPRWLPRP | 0.269 |
| RRIRFRPPRLPRPRPRPSAPPRP | -0.0675 |
| RRIRFRPPRLPRPRPRPSAYPRP | -0.791 |
| RRIRFRPPRLPRPRPRPSCVPRP | -0.443 |
| RRIRFRPPRLPRPRPRPSDMPRP | -0.11 |
| RRIRFRPPRLPRPRPRPSEAPRP | -0.0845 |
| RRIRFRPPRLPRPRPRPSEFPRP | -0.301 |
| RRIRFRPPRLPRPRPRPSEYPRP | -0.288 |
| RRIRFRPPRLPRPRPRPSFNPRP | -0.792 |
| RRIRFRPPRLPRPRPRPSFRPRP | -0.433 |
| RRIRFRPPRLPRPRPRPSGHPRP | -0.212 |
| RRIRFRPPRLPRPRPRPSGNPRP | -0.24 |
| RRIRFRPPRLPRPRPRPSGQPRP | -0.204 |
| RRIRFRPPRLPRPRPRPSHEPRP | 0.204 |
| RRIRFRPPRLPRPRPRPSHFPRP | -0.136 |
| RRIRFRPPRLPRPRPRPSIEPRP | -0.342 |

| Sequence | shrunken log2 fold change |
| --- | --- |
| RRIRFRPPRLPRPRPRPSKFPRP | -0.434 |
| RRIRFRPPRLPRPRPRPSKMPRP | -0.351 |
| RRIRFRPPRLPRPRPRPSKNPRP | -0.519 |
| RRIRFRPPRLPRPRPRPSLLPRP | -0.311 |
| RRIRFRPPRLPRPRPRPSMQPRP | -0.209 |
| RRIRFRPPRLPRPRPRPSMVPRP | -0.509 |
| RRIRFRPPRLPRPRPRPSNEPRP | -0.378 |
| RRIRFRPPRLPRPRPRPSNHPRP | -0.681 |
| RRIRFRPPRLPRPRPRPSNIPRP | -0.864 |
| RRIRFRPPRLPRPRPRPSNYPRP | -0.396 |
| RRIRFRPPRLPRPRPRPSQEPRP | -0.286 |
| RRIRFRPPRLPRPRPRPSSRPRP | -0.273 |
| RRIRFRPPRLPRPRPRPSVQPRP | -0.241 |
| RRIRFRPPRLPRPRPRPSVVPRP | -0.786 |
| RRIRFRPPRLPRPRPRPSWNPRP | -0.575 |
| RRIRFRPPRLPRPRPRPTAQPRP | -0.00528 |
| RRIRFRPPRLPRPRPRPTCPPRP | 0.174 |
| RRIRFRPPRLPRPRPRPTFVPRP | -0.051 |
| RRIRFRPPRLPRPRPRPTHNPRP | -0.18 |
| RRIRFRPPRLPRPRPRPTKCPRP | 0.0225 |
| RRIRFRPPRLPRPRPRPTKHPRP | 0.101 |
| RRIRFRPPRLPRPRPRPTKYPRP | -0.635 |
| RRIRFRPPRLPRPRPRPTMCPRP | -0.274 |
| RRIRFRPPRLPRPRPRPTMNPRP | -0.511 |
| RRIRFRPPRLPRPRPRPTMQPRP | 0.219 |

| Sequence | shrunken log2 fold change |
| --- | --- |
| RRIRFRPPRLPRPRPRPTMSPRP | -0.236 |
| RRIRFRPPRLPRPRPRPTQSPRP | 0.691 |
| RRIRFRPPRLPRPRPRPTRHPRP | 0.519 |
| RRIRFRPPRLPRPRPRPTSNPRP | -0.617 |
| RRIRFRPPRLPRPRPRPTSQPRP | -0.0191 |
| RRIRFRPPRLPRPRPRPTSSPRP | -0.0359 |
| RRIRFRPPRLPRPRPRPTSYPRP | -0.43 |
| RRIRFRPPRLPRPRPRPTVIPRP | -0.371 |
| RRIRFRPPRLPRPRPRPTWCPRP | -0.0549 |
| RRIRFRPPRLPRPRPRPTYHPRP | -0.428 |
| RRIRFRPPRLPRPRPRPTYIPRP | -0.434 |
| RRIRFRPPRLPRPRPRPTYQPRP | -0.393 |
| RRIRFRPPRLPRPRPRPVAMPRP | -0.0306 |
| RRIRFRPPRLPRPRPRPVCRPRP | -0.0676 |
| RRIRFRPPRLPRPRPRPVCSPRP | -0.279 |
| RRIRFRPPRLPRPRPRPVCYPRP | -0.495 |
| RRIRFRPPRLPRPRPRPVDFPRP | -0.452 |
| RRIRFRPPRLPRPRPRPVDPPRP | -0.228 |
| RRIRFRPPRLPRPRPRPVENPRP | -0.109 |
| RRIRFRPPRLPRPRPRPVFAPRP | 0.158 |
| RRIRFRPPRLPRPRPRPVHQPRP | 0.124 |
| RRIRFRPPRLPRPRPRPVIWPRP | -0.0895 |
| RRIRFRPPRLPRPRPRPVKKPRP | 0.166 |
| RRIRFRPPRLPRPRPRPVKTPRP | 0.0856 |
| RRIRFRPPRLPRPRPRPVLVPRP | -0.288 |

| Sequence | shrunken log2 fold change |
| --- | --- |
| RRIRFRPPRLPRPRPRPVMQPRP | -0.0242 |
| RRIRFRPPRLPRPRPRPVNEPRP | -0.288 |
| RRIRFRPPRLPRPRPRPVNYPRP | 0.184 |
| RRIRFRPPRLPRPRPRPVRCPRP | 0.308 |
| RRIRFRPPRLPRPRPRPVSCPRP | -0.514 |
| RRIRFRPPRLPRPRPRPVSIPRP | 0.0109 |
| RRIRFRPPRLPRPRPRPVWQPRP | 0.0042 |
| RRIRFRPPRLPRPRPRPWCHPRP | 0.524 |
| RRIRFRPPRLPRPRPRPWCNPRP | -0.267 |
| RRIRFRPPRLPRPRPRPWDNPRP | -0.298 |
| RRIRFRPPRLPRPRPRPWDPPRP | -0.78 |
| RRIRFRPPRLPRPRPRPWEYPRP | 0.0231 |
| RRIRFRPPRLPRPRPRPWFMPRP | -0.609 |
| RRIRFRPPRLPRPRPRPWGKPRP | -0.221 |
| RRIRFRPPRLPRPRPRPWHGPRP | -0.151 |
| RRIRFRPPRLPRPRPRPWHHPRP | -0.325 |
| RRIRFRPPRLPRPRPRPWHRPRP | 2.08 |
| RRIRFRPPRLPRPRPRPWHYPRP | -0.146 |
| RRIRFRPPRLPRPRPRPWIFPRP | -0.00568 |
| RRIRFRPPRLPRPRPRPWKWPRP | -0.0196 |
| RRIRFRPPRLPRPRPRPWMEPRP | -0.706 |
| RRIRFRPPRLPRPRPRPWNAPRP | -0.84 |
| RRIRFRPPRLPRPRPRPWNEPRP | -0.173 |
| RRIRFRPPRLPRPRPRPWPHPRP | -0.132 |
| RRIRFRPPRLPRPRPRPWQAPRP | 0.0155 |

| Sequence | shrunken log2 fold change |
| --- | --- |
| RRIRFRPPRLPRPRPRPWQFPRP | -0.333 |
| RRIRFRPPRLPRPRPRPWQMPRP | 0.053 |
| RRIRFRPPRLPRPRPRPWQTPRP | -0.0222 |
| RRIRFRPPRLPRPRPRPWREPRP | -0.149 |
| RRIRFRPPRLPRPRPRPWRHPRP | 0.0222 |
| RRIRFRPPRLPRPRPRPWTRPRP | -0.0481 |
| RRIRFRPPRLPRPRPRPWTYPRP | -0.0132 |
| RRIRFRPPRLPRPRPRPWVAPRP | -0.139 |
| RRIRFRPPRLPRPRPRPWVKPRP | -0.00968 |
| RRIRFRPPRLPRPRPRPWYFPRP | -0.303 |
| RRIRFRPPRLPRPRPRPWYKPRP | -0.145 |
| RRIRFRPPRLPRPRPRPWYWPRP | -0.34 |
| RRIRFRPPRLPRPRPRPYARPRP | 0.0368 |
| RRIRFRPPRLPRPRPRPYCFPRP | -0.615 |
| RRIRFRPPRLPRPRPRPYCNPRP | -1.06 |
| RRIRFRPPRLPRPRPRPYDIPRP | -0.0365 |
| RRIRFRPPRLPRPRPRPYEYPRP | -0.488 |
| RRIRFRPPRLPRPRPRPYHGPRP | -0.114 |
| RRIRFRPPRLPRPRPRPYIGPRP | -1.25 |
| RRIRFRPPRLPRPRPRPYIQPRP | -0.841 |
| RRIRFRPPRLPRPRPRPYKHPRP | -0.911 |
| RRIRFRPPRLPRPRPRPYKRPRP | -0.827 |
| RRIRFRPPRLPRPRPRPYKYPRP | -0.907 |
| RRIRFRPPRLPRPRPRPYLRPRP | -0.138 |
| RRIRFRPPRLPRPRPRPYMVPRP | -0.953 |
